± gives the standard error. This sample holds only a part of the variants without activity.
B1: glmS ribozyme (parent)
chain: AUAAAAGCGCCAGAACUACAGAAAUGUAGUUGACGAGGAGGAGGUUUAUCGAAUUUUCGGCGGAUGCCUCCAAA

How the values were obtained:
Conditions in all cases: with glucosamine-6-phosphate
[1] = variants of: B1; experiment: self-cleavage kobs at 640 uM GlcN6P; higher = faster cleavage; RNA array
Summary of the method: (§1)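 Glucosamine-6-phosphate (40 μM to 10 mM) in HEPES/KCl/Mg(OAc)2 buffer was flowed over sequenced MiSeq chips, and tiles were imaged over ~14 h. Barcoded ribozyme variants there had been transcribed in situ by E. coli RNA polymerase and were tracked through a hybridised Cy3 probe at 37 °C. One- or two-exponential decay fits to per-tile medians, normalised to baseline and to non-cleaving reference variants, gave kobs. kcat and KM came from weighted Michaelis–Menten fits across concentrations.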

[2] = variants of: B1; experiment: self-cleavage kobs at 2500 uM GlcN6P; higher = faster cleavage; RNA array
Summary of the method: as §1

[3] = variants of: B1; experiment: self-cleavage kobs at 10000 uM GlcN6P; higher = faster cleavage; RNA array
Summary of the method: as §1

| Variant | self-cleavage kobs at 640 uM GlcN6P [1] | self-cleavage kobs at 2500 uM GlcN6P [2] | self-cleavage kobs at 10000 uM GlcN6P [3] |
| --- | --- | --- | --- |
| C8U C10U A14U G43A | < 1e-05 s⁻¹ | < 1e-05 s⁻¹ | – |
| C11G A12C C70U | 6.11e-05 ± 2.5e-05 s⁻¹ | 8.42e-05 ± 2.9e-05 s⁻¹ | – |
| A15G U54A G66C | 0.000369 ± 9e-05 s⁻¹ | 0.000502 ± 9.7e-05 s⁻¹ | – |
| A14C U49G U54G C68G | 7.91e-05 ± 3.6e-05 s⁻¹ | – | – |
| C8A A36C C68U | < 1e-05 s⁻¹ | – | – |
| C8U G13U U47C G51C | < 1e-05 s⁻¹ | – | – |
| C16G U31G U54G | 0.000146 ± 3.7e-05 s⁻¹ | 0.000327 ± 5.9e-05 s⁻¹ | – |
| A42U A53U G59C G62C | < 1e-05 s⁻¹ | < 1e-05 s⁻¹ | – |
| A15C C16U U17A A18C C19A A36G G44U | < 1e-05 s⁻¹ | – | – |
| G9U U55C G62U | < 1e-05 s⁻¹ | – | – |
| G35A A36U G41A C58A | < 1e-05 s⁻¹ | < 1e-05 s⁻¹ | – |
| A6G C50G A52U G59U | < 1e-05 s⁻¹ | – | – |
| U31A C34U G51U | < 1e-05 s⁻¹ | < 1e-05 s⁻¹ | – |
| G32C G40C U57G | < 1e-05 s⁻¹ | – | – |
| G59C G66C | < 1e-05 s⁻¹ | – | < 1e-05 s⁻¹ |
| A6U C10G A53C G62U | < 1e-05 s⁻¹ | < 1e-05 s⁻¹ | – |
| G40U G59C C71U | < 1e-05 s⁻¹ | < 1e-05 s⁻¹ | – |
| A6G U30A A39U G60U | < 1e-05 s⁻¹ | < 1e-05 s⁻¹ | – |
| G9U A12G A14C A53C | < 1e-05 s⁻¹ | < 1e-05 s⁻¹ | – |
| C10U G38C G40A U55G | < 1e-05 s⁻¹ | < 1e-05 s⁻¹ | < 1e-05 s⁻¹ |
| A42C A53C G60A | < 1e-05 s⁻¹ | < 1e-05 s⁻¹ | – |
| G7U A53U U65G | < 1e-05 s⁻¹ | < 1e-05 s⁻¹ | – |

| Variant | self-cleavage kobs at 640 uM GlcN6P [1] | self-cleavage kobs at 2500 uM GlcN6P [2] | self-cleavage kobs at 10000 uM GlcN6P [3] |
| --- | --- | --- | --- |
| A15U U55C C70U | 4.5e-05 ± 2.2e-05 s⁻¹ | 9.45e-05 ± 3.3e-05 s⁻¹ | – |
| A36C G63A G66A | < 1e-05 s⁻¹ | – | – |
| A36U G44C C61U C71A | < 1e-05 s⁻¹ | – | – |
| A14C A15G U69A | 9.09e-05 ± 2.4e-05 s⁻¹ | 0.000115 ± 2.7e-05 s⁻¹ | – |
| C11G A42U G63U | < 1e-05 s⁻¹ | – | – |
| G13U A39G C67A | 9.82e-05 ± 3.9e-05 s⁻¹ | – | – |
| C8G G9U G51C | < 1e-05 s⁻¹ | – | – |
| C10A A12C G66U | < 1e-05 s⁻¹ | < 1e-05 s⁻¹ | – |
| G40C U65C | 4.51e-05 ± 1.9e-05 s⁻¹ | – | 0.000172 ± 3.4e-05 s⁻¹ |
| A14G G32C G63C G66U U69G | < 1e-05 s⁻¹ | < 1e-05 s⁻¹ | – |
| A14U G41A U45A | 6.25e-05 ± 2.9e-05 s⁻¹ | 0.000195 ± 5.4e-05 s⁻¹ | – |
| U47A U54G C68G | 6.48e-05 ± 1.2e-05 s⁻¹ | 6.96e-05 ± 1.8e-05 s⁻¹ | – |
| C11G A12U G38C A42U | < 1e-05 s⁻¹ | < 1e-05 s⁻¹ | – |
| C16U G32U C58G | 0.00017 ± 3.4e-05 s⁻¹ | – | – |
| G13U G32A C70A | 5.59e-05 ± 2.4e-05 s⁻¹ | 0.000106 ± 3.2e-05 s⁻¹ | – |
| C11G A48G C71U | < 1e-05 s⁻¹ | < 1e-05 s⁻¹ | – |
| G7A A53C C68U | < 1e-05 s⁻¹ | < 1e-05 s⁻¹ | – |
| G32U G35C U46A C67G C68A | 0.000467 ± 0.00023 s⁻¹ | – | – |
| A33U G40U A52U U57G | < 1e-05 s⁻¹ | < 1e-05 s⁻¹ | – |
| U31G C34G U65A | < 1e-05 s⁻¹ | – | – |
| C11U A36U G44C G62U | < 1e-05 s⁻¹ | – | – |
| U30C A53U U57G A64C U69G | 0.000129 ± 3.2e-05 s⁻¹ | 0.000128 ± 5.2e-05 s⁻¹ | – |

| Variant | self-cleavage kobs at 640 uM GlcN6P [1] | self-cleavage kobs at 2500 uM GlcN6P [2] | self-cleavage kobs at 10000 uM GlcN6P [3] |
| --- | --- | --- | --- |
| C10G G13U G41U U49G | < 1e-05 s⁻¹ | – | – |
| G9C U45A C68A | < 1e-05 s⁻¹ | < 1e-05 s⁻¹ | – |
| G37A G63U A64C | < 1e-05 s⁻¹ | – | < 1e-05 s⁻¹ |
| G13U G35U G37U | < 1e-05 s⁻¹ | – | – |
| G29A A39G U54A | 0.00173 ± 0.00059 s⁻¹ | 0.00457 ± 0.0012 s⁻¹ | – |
| G9C C10U G13U | < 1e-05 s⁻¹ | – | – |
| G35C G40C G60C | < 1e-05 s⁻¹ | – | – |
| G40U U54C | 0.000738 ± 0.00016 s⁻¹ | 0.00431 ± 0.0006 s⁻¹ | – |
| G7A A12C A42C U49C | < 1e-05 s⁻¹ | – | – |
| U47G U49A A52G | < 1e-05 s⁻¹ | – | – |
| A6C G44A G51U | < 1e-05 s⁻¹ | < 1e-05 s⁻¹ | – |
| G35C A39C G43C U56A | < 1e-05 s⁻¹ | – | – |
| G40U C61G U65G | < 1e-05 s⁻¹ | < 1e-05 s⁻¹ | – |
| A14C C16A C71G | 6.58e-05 ± 2.7e-05 s⁻¹ | 4.2e-05 ± 2.1e-05 s⁻¹ | – |
| A6G U31G U45A A53G C61A G66C | < 1e-05 s⁻¹ | – | – |
| G35C G37U | < 1e-05 s⁻¹ | – | – |
| G44A U65C | < 1e-05 s⁻¹ | – | – |
| G7U G13A G29U | < 1e-05 s⁻¹ | < 1e-05 s⁻¹ | < 1e-05 s⁻¹ |
| A6G G7A G13U A15C C68A C70A | < 1e-05 s⁻¹ | – | – |
| G37C G62U C68U | < 1e-05 s⁻¹ | < 1e-05 s⁻¹ | – |
| C10G A14G A36C G62U | < 1e-05 s⁻¹ | – | – |

— the supplement of paper PMC7125110
